From patent publication US20200292537A1 (THEUNITEDSTATES OF AMERICA ASREPRESENTEDBYTHE SECRETARYOF …, published 2020) come the findings set out here.

Assay [1] concerns the target recombinant RON protein (extracellular domain, R&D Systems) (human) (UniProt Q04912). Briefly: full-length MET sandwich immunoassay; RON extracellular domain at 4 to 400 pM, 10-fold over rMET.
Assay [2] has as its target pY1235-MET (human MET phosphorylated at tyrosine 1235) (human) (UniProt P08581). The assay is described as follows: interaction analysis with a BIAlite-Biosensor (Pharmacia), range of protein concentrations.
Assay [3] addresses T1, recombinant RON (cytoplasmic domain, Millipore) (UniProt Q04912 983-1400, limits assumed).
T1 construct: domain: cytoplasmic domain; also called recombinant cytoplasmic RON; cytoplasmic domain of RON
T1 sequence (looked up): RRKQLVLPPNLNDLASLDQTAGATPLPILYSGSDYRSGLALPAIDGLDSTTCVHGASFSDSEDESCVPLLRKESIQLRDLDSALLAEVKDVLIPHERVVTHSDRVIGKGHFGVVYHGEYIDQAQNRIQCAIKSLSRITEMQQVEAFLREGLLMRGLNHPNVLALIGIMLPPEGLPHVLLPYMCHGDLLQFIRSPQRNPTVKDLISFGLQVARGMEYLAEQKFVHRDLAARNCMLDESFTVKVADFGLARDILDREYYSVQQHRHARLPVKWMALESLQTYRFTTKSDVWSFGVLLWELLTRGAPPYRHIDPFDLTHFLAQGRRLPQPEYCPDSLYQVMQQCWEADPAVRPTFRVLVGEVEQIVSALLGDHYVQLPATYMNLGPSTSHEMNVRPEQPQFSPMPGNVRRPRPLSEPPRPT
Briefly: Western blot of recombinant RON and preincubation of the antibody with RON. (In general: A western blot detects proteins with antibodies after separation by electrophoresis.)

Chain of recombinant RON protein (extracellular domain, R&D Systems) (human) (Q04912 25-957): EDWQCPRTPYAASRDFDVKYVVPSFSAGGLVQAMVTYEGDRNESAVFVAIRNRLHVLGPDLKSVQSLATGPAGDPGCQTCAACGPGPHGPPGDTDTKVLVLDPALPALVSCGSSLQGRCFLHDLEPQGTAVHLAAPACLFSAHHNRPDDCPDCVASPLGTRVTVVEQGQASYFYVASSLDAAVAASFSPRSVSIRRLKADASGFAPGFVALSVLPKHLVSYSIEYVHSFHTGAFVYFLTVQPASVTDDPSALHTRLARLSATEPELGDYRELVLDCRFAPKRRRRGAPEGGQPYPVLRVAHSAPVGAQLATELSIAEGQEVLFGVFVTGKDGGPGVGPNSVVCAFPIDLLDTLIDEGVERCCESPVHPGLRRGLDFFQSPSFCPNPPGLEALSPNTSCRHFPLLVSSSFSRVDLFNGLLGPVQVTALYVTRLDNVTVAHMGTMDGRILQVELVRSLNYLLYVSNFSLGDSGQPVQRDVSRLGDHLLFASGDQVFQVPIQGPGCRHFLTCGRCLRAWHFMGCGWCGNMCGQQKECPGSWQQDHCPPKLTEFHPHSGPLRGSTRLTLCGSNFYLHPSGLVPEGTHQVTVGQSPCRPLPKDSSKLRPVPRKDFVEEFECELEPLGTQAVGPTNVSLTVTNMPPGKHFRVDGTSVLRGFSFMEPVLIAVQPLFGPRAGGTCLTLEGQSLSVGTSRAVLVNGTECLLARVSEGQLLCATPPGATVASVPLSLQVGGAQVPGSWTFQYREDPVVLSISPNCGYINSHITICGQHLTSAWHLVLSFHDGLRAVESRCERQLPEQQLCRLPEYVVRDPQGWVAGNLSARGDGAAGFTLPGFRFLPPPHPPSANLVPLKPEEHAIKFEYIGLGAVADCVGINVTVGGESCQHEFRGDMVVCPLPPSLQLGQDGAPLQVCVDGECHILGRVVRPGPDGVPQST
Chain of pY1235-MET (human MET phosphorylated at tyrosine 1235) (human) (P08581 25-1390 limits assumed): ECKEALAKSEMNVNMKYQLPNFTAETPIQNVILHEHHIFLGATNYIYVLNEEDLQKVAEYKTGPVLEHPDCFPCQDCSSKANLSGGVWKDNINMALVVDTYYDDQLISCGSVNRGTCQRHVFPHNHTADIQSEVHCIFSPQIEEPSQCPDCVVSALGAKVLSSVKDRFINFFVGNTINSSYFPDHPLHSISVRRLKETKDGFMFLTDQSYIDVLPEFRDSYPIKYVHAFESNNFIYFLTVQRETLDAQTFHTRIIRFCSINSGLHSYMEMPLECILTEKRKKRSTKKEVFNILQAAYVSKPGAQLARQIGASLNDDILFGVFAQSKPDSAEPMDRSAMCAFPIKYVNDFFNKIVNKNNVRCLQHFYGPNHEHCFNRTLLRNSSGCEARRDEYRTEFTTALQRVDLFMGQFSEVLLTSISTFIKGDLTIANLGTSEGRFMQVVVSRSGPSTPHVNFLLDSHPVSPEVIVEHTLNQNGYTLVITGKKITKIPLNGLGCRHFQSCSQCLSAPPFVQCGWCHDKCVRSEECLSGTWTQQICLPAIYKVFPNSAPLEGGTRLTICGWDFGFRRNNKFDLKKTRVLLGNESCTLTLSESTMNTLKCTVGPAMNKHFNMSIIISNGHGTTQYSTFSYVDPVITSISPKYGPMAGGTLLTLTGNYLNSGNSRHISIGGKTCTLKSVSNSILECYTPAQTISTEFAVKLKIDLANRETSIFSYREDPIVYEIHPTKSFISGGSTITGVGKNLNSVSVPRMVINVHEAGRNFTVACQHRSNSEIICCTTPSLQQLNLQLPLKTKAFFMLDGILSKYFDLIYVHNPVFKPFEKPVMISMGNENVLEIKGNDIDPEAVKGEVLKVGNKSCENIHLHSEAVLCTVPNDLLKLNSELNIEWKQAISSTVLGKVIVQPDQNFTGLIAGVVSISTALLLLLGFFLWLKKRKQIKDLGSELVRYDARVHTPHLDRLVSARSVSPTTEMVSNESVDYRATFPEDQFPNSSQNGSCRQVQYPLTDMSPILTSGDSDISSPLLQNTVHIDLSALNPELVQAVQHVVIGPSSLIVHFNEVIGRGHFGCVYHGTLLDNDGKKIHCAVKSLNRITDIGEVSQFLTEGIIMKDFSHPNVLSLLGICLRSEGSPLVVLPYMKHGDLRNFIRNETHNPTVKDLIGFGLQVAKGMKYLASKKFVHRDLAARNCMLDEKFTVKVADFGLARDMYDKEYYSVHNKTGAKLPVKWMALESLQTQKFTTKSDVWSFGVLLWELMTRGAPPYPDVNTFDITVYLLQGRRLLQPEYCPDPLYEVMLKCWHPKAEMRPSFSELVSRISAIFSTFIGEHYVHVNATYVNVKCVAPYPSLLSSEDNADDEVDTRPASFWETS

With “antigen affinity purified goat polyclonal anti-human MET extracellular domain antibody (catalog number AF276, R&D Systems)”, the cross-reactivity in assay [1] was less than 5%.

B1: rabbit monoclonal anti-pY1235-MET antibody, clone 23111 (antibody, V domains shown)
VH: QSVEESGGRLVTPGTPLTLTCTVSGFSLSNYAMGWFRQAPGKGLEWIGIISRSGALWYANWANGRFTISKTSTTVDLKITSPTPEDTATYFCARTNYYDGYGGVDAVLTRFDFWGQGTLVTVSS
VL: DVVMTQTPSSVEAAVGGTVTIKCQASQSIGGGLSWYQQKAGQPPKLLIYGASTLESGVPSRFKGSGSGTEFTLTISDLECADAATYYCQSNYGSDIRDYGHTFGGGTEVVVKG
notes: Rabbit IgG from a hybridoma (Epitomics), later made as a recombinant protein in HEK293 cells; Biotin-conjugated when used as reporter in the sandwich immunoassay; also called antibody #23111; mAb #23111
Usually IC50 stands for the concentration needed to halve the response being measured. Higher therefore signals lower potency. B1 showed an IC50 in assay [2] of 1.2 nM. Also, in assay [3], the binding result was “no binding”.
